Test results published in paper PMC6628251, “Structural and Functional Impact of Seven Missense Variants of Phenylalanine Hydroxylase” (Genes, 2019).
Numbering of substitutions follows the chain as printed. Values joined by “and” are separate entries in the source; they are usually repeats but may differ in a detail not shown here. Equal values may be shown once.

B1: human phenylalanine hydroxylase variant p.Asn167Tyr, fusion with maltose-binding protein (enzyme, UniProt P00439 1-452, looked up)
chain: MSTAVLENPGLGRKLSDFGQETSYIEDNCNQNGAISLIFSLKEEVGALAKVLRLFEENDVNLTHIESRPSRLKKDEYEFFTHLDKRSLPALTNIIKILRHDIGATVHELSRDKKKDTVPWFPRTIQELDRFANQILSYGAELDADHPGFKDPVYRARRKQFADIAYYYRHGQPIPRVEYMEEEKKTWGTVFKTLKSLYKTHACYEYNHIFPLLEKYCGFHEDNIPQLEDVSQFLQTCTGFRLRPVAGLLSSRDFLGGLAFRVFHCTQYIRHGSKPMYTPEPDICHELLGHVPLFSDRSFAQFSQEIGLASLGAPDEYIEKLATIYWFTVEFGLCKQGDSIKAYGAGLLSSFGELQYCLSEKPKLLPLELEKTAIQNYTVTEFQPLYYVAESFNDAKEKVRNFAATIPRPFSVRYDPYTQRIEVLDNTQQLKILADSINSEIGILCSALQKIK
notes: phenylalanine hydroxylase (PAH), human, missense variant from Czech PKU/HPA patients, made by site-directed mutagenesis of pMAL-PAH; Same construct as m1 with one substitution; also called c.499A>T
B2: human phenylalanine hydroxylase variant p.Thr200Asn, fusion with maltose-binding protein (enzyme, UniProt P00439 1-452, looked up)
chain: B1 chain with Y167N, T200N
notes: phenylalanine hydroxylase (PAH), human, missense variant from Czech PKU/HPA patients, made by site-directed mutagenesis of pMAL-PAH; Same construct as m1 with one substitution; also called c.599C>A
B3: human phenylalanine hydroxylase variant p.Asp229Gly, fusion with maltose-binding protein (enzyme, UniProt P00439 1-452, looked up)
chain: B1 chain with Y167N, D229G
notes: phenylalanine hydroxylase (PAH), human, missense variant from Czech PKU/HPA patients, made by site-directed mutagenesis of pMAL-PAH; Same construct as m1 with one substitution; also called c.686A>G
B4: human phenylalanine hydroxylase variant p.Gly239Ala, fusion with maltose-binding protein (enzyme, UniProt P00439 1-452, looked up)
chain: B1 chain with Y167N, G239A
notes: phenylalanine hydroxylase (PAH), human, missense variant from Czech PKU/HPA patients, made by site-directed mutagenesis of pMAL-PAH; Same construct as m1 with one substitution; also called c.716G>C
B5: human phenylalanine hydroxylase variant p.Phe263Ser, fusion with maltose-binding protein (enzyme, UniProt P00439 1-452, looked up)
chain: B1 chain with Y167N, F263S
notes: phenylalanine hydroxylase (PAH), human, missense variant from Czech PKU/HPA patients, made by site-directed mutagenesis of pMAL-PAH; Same construct as m1 with one substitution; also called c.788T>C
B6: human phenylalanine hydroxylase variant p.Ala342Pro, fusion with maltose-binding protein (enzyme, UniProt P00439 1-452, looked up)
chain: B1 chain with Y167N, A342P
notes: phenylalanine hydroxylase (PAH), human, missense variant from Czech PKU/HPA patients, made by site-directed mutagenesis of pMAL-PAH; Same construct as m1 with one substitution; also called c.1024G>C
B7: human phenylalanine hydroxylase variant p.Ile406Met, fusion with maltose-binding protein (enzyme, UniProt P00439 1-452, looked up)
chain: B1 chain with Y167N, I406M
notes: phenylalanine hydroxylase (PAH), human, missense variant from Czech PKU/HPA patients, made by site-directed mutagenesis of pMAL-PAH; Same construct as m1 with one substitution; also called c.1218A>G
B8: human wild type phenylalanine hydroxylase, fusion with maltose-binding protein (enzyme, UniProt P00439 1-452, looked up)
chain: B1 chain with Y167N
notes: phenylalanine hydroxylase (PAH), human, WT cDNA in the pMAL-MBP-c2 vector; also called WT PAH; PAH-MBP fusion protein

Biological target: the molecule itself
Experiment: SEC; MBP-PAH expressed in E. coli XL1 blue without GroEL/ES; MBPTrap HP affinity, then Superdex 200 HR 10/30; 200 mM NaCl, 20 mM HEPES, pH 7.0; percent of oligomers, tetramers and dimers, mean of three column purifications

Protein | percent of purified protein as dimers [%] | percent of purified protein as tetramers [%]
B1 | 20.2 | 33.2
B2 | 10.5 | 40.5
B3 | 19.3 | 
B4 | 32.8 | 
B5 | 27.1 | 
B6 | 22 | 
B7 | 15.6 | 34.2

Biological target: the molecule itself
Experiment: SEC; MBP-PAH co-expressed with GroEL/ES (pGroELS) in E. coli XL1 blue; MBPTrap HP affinity, then Superdex 200 HR 10/30; 200 mM NaCl, 20 mM HEPES, pH 7.0; percent of oligomers, tetramers and dimers, mean of three column purifications

Protein | percent of purified protein as dimers [%] | percent of purified protein as tetramers [%]
B1 | 8.5 | 38.8
B2 | 4.5 | 43.8
B3 | 10.1 | 10.2
B4 | 14 | 5.5
B5 | 13.6 | 11
B6 | 15.5 | 3.8
B7 | 6.9 | 37.7

Biological target: the molecule itself
Experiment: SEC; MBP-PAH expressed in E. coli XL1 blue without GroEL/ES; MBPTrap HP affinity, then Superdex 200 HR 10/30; 200 mM NaCl, 20 mM HEPES, pH 7.0; percent of oligomers, tetramers and dimers, mean of three column purifications
Remark: another data set of the same source

Protein | stoichiometry N
B8 | 4 and 2
